Reference: paper PMC8570342, “Identification of an Isoflavonoid Transporter Required for the Nodule Establishment of the Rhizobium-Fabaceae Symbiotic Interaction” (Frontiers in Plant Science, 2021)

Substrate: O=c1c(-c2ccc(O)cc2)coc2cc(O)cc(O)c12
Assay: 3H-genistein uptake into yeast microsomal vesicles, rapid filtration, Hanes-Woolf plot
Type: biochemical, Lupinus albus
Conditions: labelled compound, 5 mM ATP, 10 mM MgCl2, 0.1 M KCl, pH 7.4, 30 s, empty-vector uptake subtracted, proton-driven
From the text: 3H-genistein uptake into yeast microsomal vesicles, rapid filtration, Hanes-Woolf plot on LaMATE2 | LaMATE2 mediates an efficient transport of genistein which was characterized by a saturable kinetic

B1: LaMATE2 (Lupinus albus) (protein)
chain: MEESLIPKQVEQKTERYNEEKQKHKVTWNSFSEEMKRICVVAGPMVIVISSQYLLQVVSTMMVGHLGELYLSSAALAISLSSVTGFSLIMGMASGLETICGQAFGGKQYKRIGTQTYTAILSLTLVSFVLSLLWINMERILVFIGQDPLIAHESGKFIIWLIPALFAYAIMQPLVRYFQMQSLLFPMLISSLVALCIHIPLCWALVYKTRLHNVGGALALGISNWSNVIFLALYMRYSSACAKTRAPISMELFHGIWEFFRFAVPSALMICLEWWSFELLVLLSGLLPNPQLETSVLSVCLNTISTLYTIPFGIGAAASTRVSNELGAGNPHTARIAVLAAMSLAVLETCVVTGTLFACRHIFGYIFSNEKEVVDYVTLMAPLVCISVILDSLQGVLTGIARGCGWQHLGVYVNLGAFYLLGIPAAATLAFWFKLRGKGLWIGIQVGSFVQTLLLSIITSGINWEQQANKAKYRLLEDESSAENSLA
notes: full ORF in pNEV, no tag stated; expressed in Saccharomyces cerevisiae YPH499, microsomal membrane vesicles; 12 predicted transmembrane helices
  Km: 16.2 µM
